In IntAct's records for PubMed 29039417:

B1: BBSome complex member BBS2 (Homo sapiens), Q9BXC9 (parent)
chain: MLLPVFTLKLRHKISPRMVAIGRYDGTHPCLAAATQTGKVFIHNPHTRNQHVSASRVFQSPLESDVSLLSINQAVSCLTAGVLNPELGYDALLVGTQTNLLAYDVYNNSDLFYREVADGANAIVLGTLGDISSPLAIIGGNCALQGFNHEGSDLFWTVTGDNVNSLALCDFDGDGKKELLVGSEDFDIRVFKEDEIVAEMTETEIVTSLCPMYGSRFGYALSNGTVGVYDKTSRYWRIKSKNHAMSIHAFDLNSDGVNELITGWSNGKVDARSDRTGEVIFKDNFSSAIAGVVEGDYRMDGHIQLICCSVDGEIRGYLPGTAEMRGNLMDTSAEQDLIRELSQKKQNLLLELRNYEENAKAELASPLNEADGHRGIIPANTRLHTTLSVSLGNETQTAHTELRISTSNDTIIRAVLIFAEGIFTGESHVVHPSIHNLSSSICIPIVPPKDVPVDLHLKAFVGYRSSTQFHVFESTRQLPRFSMYALTSLDPASEPISYVNFTIAERAQRVVVWLGQNFLLPEDTHIQNAPFQVCFTSLRNGGHLHIKIKLSGEITINTDDIDLAGDIIQSMASFFAIEDLQVEADFPVYFEELRKVLVKVDEYHSVHQKLSADMADHSNLIRSLLVGAEDARLMRDMKTMKSRYMELYDLNRDLLNGYKIRCNNHTELLGNLKAVNQAIQRAGRLRVGKPKNQVITACRDAIRSNNINTLFKIMRVGTASS
partner: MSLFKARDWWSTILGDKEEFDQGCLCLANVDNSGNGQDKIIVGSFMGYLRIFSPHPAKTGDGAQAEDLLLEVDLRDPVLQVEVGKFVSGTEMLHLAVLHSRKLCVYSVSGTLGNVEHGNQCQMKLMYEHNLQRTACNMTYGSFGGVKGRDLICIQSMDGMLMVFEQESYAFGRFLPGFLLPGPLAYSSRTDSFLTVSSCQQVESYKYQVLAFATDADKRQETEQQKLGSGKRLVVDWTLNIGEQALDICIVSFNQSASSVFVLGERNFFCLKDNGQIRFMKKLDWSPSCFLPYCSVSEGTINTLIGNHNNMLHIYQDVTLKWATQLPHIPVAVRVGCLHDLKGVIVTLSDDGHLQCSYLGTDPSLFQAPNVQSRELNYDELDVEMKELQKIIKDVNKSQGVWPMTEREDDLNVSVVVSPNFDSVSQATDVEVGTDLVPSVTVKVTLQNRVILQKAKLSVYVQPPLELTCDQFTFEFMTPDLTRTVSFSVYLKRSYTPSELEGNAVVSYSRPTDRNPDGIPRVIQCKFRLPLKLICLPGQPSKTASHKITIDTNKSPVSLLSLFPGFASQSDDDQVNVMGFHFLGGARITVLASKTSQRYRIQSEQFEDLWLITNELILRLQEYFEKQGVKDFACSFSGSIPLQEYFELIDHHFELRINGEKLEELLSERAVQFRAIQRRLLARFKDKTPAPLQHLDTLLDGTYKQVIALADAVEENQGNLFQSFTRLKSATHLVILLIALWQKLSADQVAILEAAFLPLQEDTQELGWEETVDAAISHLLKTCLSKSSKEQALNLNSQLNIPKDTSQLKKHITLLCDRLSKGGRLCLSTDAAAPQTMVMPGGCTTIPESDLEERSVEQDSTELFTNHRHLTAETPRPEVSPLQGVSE

Variants of: B1
Conditions: with pthb1_human BBS9, Q3SYG4

| Variant | effect of a mutation on the interaction |
| --- | --- |
| F481K | disrupting interaction strength |
| L341E | with no effect |
| L625K | with no effect |
| S488A | with no effect |
| T424K | with no effect |
| P448K | with no effect |
| T400K | with no effect |
| K659A | with no effect |
| L633K | with no effect |
| S342K | with no effect |
| S570K | with no effect |
| N706A | with no effect |
| N706K | with no effect |
| R506A | with no effect |
| L620E | with no effect |
| D649E | with no effect |
| E426K | with no effect |
| G657E | with no effect |
| Y355K | with no effect |
| F531A | with no effect |
| F531E | with no effect |
| F531K | with no effect |
| D613E | with no effect |

| Variant | effect of a mutation on the interaction |
| --- | --- |
| G717E | with no effect |
| G717K | with no effect |
| S493K | with no effect |
| S493E | with no effect |
| H665E | with no effect |
| K549A | with no effect |
| K549E | with no effect |
| T555H | disrupting interaction strength |
| D653K | with no effect |
| D653E | with no effect |
| D630E | with no effect |
| S537E | with no effect |
| N656K | with no effect |
| D371E | with no effect |
| I526E | with no effect |
| V461K | disrupting interaction strength |
| Q396E | with no effect |
| R539K | with no effect |
| G542E | with no effect |
| G542A | with no effect |
| A615E | with no effect |
| A615K | with no effect |
| I546A | with no effect |

| Variant | effect of a mutation on the interaction |
| --- | --- |
| Q468K | with no effect |
| P479K | with no effect |
| P479L | disrupting interaction strength |
| A459T | disrupting interaction strength |
| A682E | with no effect |
| Y498A | with no effect |
| N619A | with no effect |
| S365E | with no effect |
| V588K | with no effect |
| L550A | with no effect |
| P452A | with no effect |
| R594E | with no effect |
| Q343A | with no effect |
| R374W | disrupting interaction strength |
| Q477E | with no effect |
| E494K | with no effect |
| D454E | with no effect |
| T524E | with no effect |
| T524K | with no effect |
| C442A | with no effect |
| F418A | with no effect |
| I679E | with no effect |
| N664K | with no effect |

| Variant | effect of a mutation on the interaction |
| --- | --- |
| S618E | with no effect |
| Q677E | with no effect |
| A564K | with no effect |
| L514E | disrupting interaction strength |
| Y589E | with no effect |
| S721K | with no effect |
| S721A | with no effect |
| S482E | disrupting interaction strength |
| S482A | with no effect |
| S332K | with no effect |
| I554K | with no effect |
| R622A | with no effect |
| N708A | with no effect |
| G462K | with no effect |
| R403A | with no effect |
| I412K | with no effect |
| A359E | with no effect |
| A359K | with no effect |
| T718A | with no effect |
| V451K | with no effect |
| T467A | with no effect |
| T467K | with no effect |
| N358K | with no effect |

| Variant | effect of a mutation on the interaction |
| --- | --- |
| N500E | with no effect |
| L672K | with no effect |
| L672A | with no effect |
| H384K | with no effect |
| I707K | with no effect |
| G425A | with no effect |
| N368K | with no effect |
| T385E | with no effect |
| Q532K | with no effect |
| L486K | with no effect |
| A719E | with no effect |
| E646K | with no effect |
| K673A | with no effect |
| Q680E | with no effect |
| Q680A | with no effect |
| L367A | with no effect |
| I411A | with no effect |
| A492K | with no effect |
| A419K | with no effect |
| D490K | with no effect |
| I556E | with no effect |
| K595A | with no effect |
| A612E | with no effect |

| Variant | effect of a mutation on the interaction |
| --- | --- |
| S388K | with no effect |
| H373A | with no effect |
| H373K | with no effect |
| D616K | with no effect |
| S439K | with no effect |
| S438E | with no effect |
| L655A | with no effect |
| T709K | with no effect |
| A398V | disrupting interaction strength |
| A398E | with no effect |
| N393K | with no effect |
| R715E | with no effect |
| G670E | with no effect |
| L580A | with no effect |
| E578K | with no effect |
| E369A | with no effect |
| P521E | with no effect |
| S466A | with no effect |
| V453E | with no effect |
| S465K | with no effect |
| S465E | with no effect |
| N540E | with no effect |
| L654E | with no effect |

| Variant | effect of a mutation on the interaction |
| --- | --- |
| L650K | with no effect |
| G541A | with no effect |
| V596A | with no effect |
| I561K | with no effect |
| I561A | with no effect |
| T410K | with no effect |
| Q527A | with no effect |
| N517A | with no effect |
| N517E | with no effect |
| N517K | with no effect |
| Y484E | disrupting interaction strength |
| Y484K | disrupting interaction strength |
| I621A | with no effect |
| I621E | with no effect |
| G683E | with no effect |
| G375K | with no effect |
| P491A | with no effect |
| M637E | with no effect |
| V430A | disrupting interaction strength |
| L387A | with no effect |
| Y648K | with no effect |
| R661A | with no effect |
| S433A | with no effect |

| Variant | effect of a mutation on the interaction |
| --- | --- |
| F469L | disrupting interaction strength |
| V606K | with no effect |
| E340A | with no effect |
| E340K | with no effect |
| E629K | with no effect |
| D450E | with no effect |
| P432K | with no effect |
| Q346K | with no effect |
| Q346E | with no effect |
| R382K | with no effect |
| I548A | with no effect |
| I548K | with no effect |
| A584K | with no effect |
| T386A | with no effect |
| E356K | with no effect |
| A697E | with no effect |
| P495E | with no effect |
| L520A | with no effect |
| E505K | with no effect |
| I443A | disrupting interaction strength |
